# Reference: doi:10.1101/808618 (bioRxiv, 2020)
# B1: Plasmodium falciparum GMP synthetase wildtype (enzyme)
# chain: MEGEEYDKILVLNFGSQYFHLIVKRLNNIKIFSETKDYGVELKDIKDMNIKGVILSGGPYSVTEAGSPHLKKEVFEYFLEKKIPIFGICYGMQEIAVQMNGEVKKSKTSEYGCTDVNILRNDNINNITYCRNFGDSSSAMDLYSNYKLMNETCCLFENIKSDITTVWMNHNDEVTKIPENFYLVSSSENCLICSIYNKEYNIYGVQYHPEVYESLDGELMFYNFAYNICKCKKQFDPIRYHELELKNIEKYKHDHYVIAAMSGGIDSTVAAAYTHKIFKERFFGIFIDNGLLRKNEAENVYTFLKSTFPDMNITKIDASENFLSNLQGVTDPEQKRKIIGKLFIEEFEKAVNNIDIDINKTFLLQGTLYPDIIESKCSKNLSDTIKTHHNVGGLPKNLKFKLFEPFKYLFKDDVKTLSRELNLPEEITNRHPFPGPGLAIRVIGEINKHKLNILREVDDIFINDLKQYGLYNQISQAFAVLLSSKSVGVRGDARSYDYVCVLRAVKTSSFMTANWYQIPYDILDKITTRILSEVKGVNRILYDVSSKPPATIEFE
# B2: PfGMPS H389A (enzyme, Plasmodium falciparum)
# chain: MEGEEYDKILVLNFGSQYFHLIVKRLNNIKIFSETKDYGVELKDIKDMNIKGVILSGGPYSVTEAGSPHLKKEVFEYFLEKKIPIFGICYGMQEIAVQMNGEVKKSKTSEYGCTDVNILRNDNINNITYCRNFGDSSSAMDLYSNYKLMNETCCLFENIKSDITTVWMNHNDEVTKIPENFYLVSSSENCLICSIYNKEYNIYGVQYHPEVYESLDGELMFYNFAYNICKCKKQFDPIRYHELELKNIEKYKHDHYVIAAMSGGIDSTVAAAYTHKIFKERFFGIFIDNGLLRKNEAENVYTFLKSTFPDMNITKIDASENFLSNLQGVTDPEQKRKIIGKLFIEEFEKAVNNIDIDINKTFLLQGTLYPDIIESKCSKNLSDTIKTHANVGGLPKNLKFKLFEPFKYLFKDDVKTLSRELNLPEEITNRHPFPGPGLAIRVIGEINKHKLNILREVDDIFINDLKQYGLYNQISQAFAVLLSSKSVGVRGDARSYDYVCVLRAVKTSSFMTANWYQIPYDILDKITTRILSEVKGVNRILYDVSSKPPATIEFE
# B3: PfGMPS_N390A (enzyme, Plasmodium falciparum)
# chain: MEGEEYDKILVLNFGSQYFHLIVKRLNNIKIFSETKDYGVELKDIKDMNIKGVILSGGPYSVTEAGSPHLKKEVFEYFLEKKIPIFGICYGMQEIAVQMNGEVKKSKTSEYGCTDVNILRNDNINNITYCRNFGDSSSAMDLYSNYKLMNETCCLFENIKSDITTVWMNHNDEVTKIPENFYLVSSSENCLICSIYNKEYNIYGVQYHPEVYESLDGELMFYNFAYNICKCKKQFDPIRYHELELKNIEKYKHDHYVIAAMSGGIDSTVAAAYTHKIFKERFFGIFIDNGLLRKNEAENVYTFLKSTFPDMNITKIDASENFLSNLQGVTDPEQKRKIIGKLFIEEFEKAVNNIDIDINKTFLLQGTLYPDIIESKCSKNLSDTIKTHHAVGGLPKNLKFKLFEPFKYLFKDDVKTLSRELNLPEEITNRHPFPGPGLAIRVIGEINKHKLNILREVDDIFINDLKQYGLYNQISQAFAVLLSSKSVGVRGDARSYDYVCVLRAVKTSSFMTANWYQIPYDILDKITTRILSEVKGVNRILYDVSSKPPATIEFE
# B4: PfGMPS_K411L (enzyme, Plasmodium falciparum)
# chain: MEGEEYDKILVLNFGSQYFHLIVKRLNNIKIFSETKDYGVELKDIKDMNIKGVILSGGPYSVTEAGSPHLKKEVFEYFLEKKIPIFGICYGMQEIAVQMNGEVKKSKTSEYGCTDVNILRNDNINNITYCRNFGDSSSAMDLYSNYKLMNETCCLFENIKSDITTVWMNHNDEVTKIPENFYLVSSSENCLICSIYNKEYNIYGVQYHPEVYESLDGELMFYNFAYNICKCKKQFDPIRYHELELKNIEKYKHDHYVIAAMSGGIDSTVAAAYTHKIFKERFFGIFIDNGLLRKNEAENVYTFLKSTFPDMNITKIDASENFLSNLQGVTDPEQKRKIIGKLFIEEFEKAVNNIDIDINKTFLLQGTLYPDIIESKCSKNLSDTIKTHHNVGGLPKNLKFKLFEPFKYLFLDDVKTLSRELNLPEEITNRHPFPGPGLAIRVIGEINKHKLNILREVDDIFINDLKQYGLYNQISQAFAVLLSSKSVGVRGDARSYDYVCVLRAVKTSSFMTANWYQIPYDILDKITTRILSEVKGVNRILYDVSSKPPATIEFE
# B5: PfGMPS_D412A (enzyme, Plasmodium falciparum)
# chain: MEGEEYDKILVLNFGSQYFHLIVKRLNNIKIFSETKDYGVELKDIKDMNIKGVILSGGPYSVTEAGSPHLKKEVFEYFLEKKIPIFGICYGMQEIAVQMNGEVKKSKTSEYGCTDVNILRNDNINNITYCRNFGDSSSAMDLYSNYKLMNETCCLFENIKSDITTVWMNHNDEVTKIPENFYLVSSSENCLICSIYNKEYNIYGVQYHPEVYESLDGELMFYNFAYNICKCKKQFDPIRYHELELKNIEKYKHDHYVIAAMSGGIDSTVAAAYTHKIFKERFFGIFIDNGLLRKNEAENVYTFLKSTFPDMNITKIDASENFLSNLQGVTDPEQKRKIIGKLFIEEFEKAVNNIDIDINKTFLLQGTLYPDIIESKCSKNLSDTIKTHHNVGGLPKNLKFKLFEPFKYLFKADVKTLSRELNLPEEITNRHPFPGPGLAIRVIGEINKHKLNILREVDDIFINDLKQYGLYNQISQAFAVLLSSKSVGVRGDARSYDYVCVLRAVKTSSFMTANWYQIPYDILDKITTRILSEVKGVNRILYDVSSKPPATIEFE
# B6: PfGMPS D413A (enzyme, Plasmodium falciparum)
# chain: MEGEEYDKILVLNFGSQYFHLIVKRLNNIKIFSETKDYGVELKDIKDMNIKGVILSGGPYSVTEAGSPHLKKEVFEYFLEKKIPIFGICYGMQEIAVQMNGEVKKSKTSEYGCTDVNILRNDNINNITYCRNFGDSSSAMDLYSNYKLMNETCCLFENIKSDITTVWMNHNDEVTKIPENFYLVSSSENCLICSIYNKEYNIYGVQYHPEVYESLDGELMFYNFAYNICKCKKQFDPIRYHELELKNIEKYKHDHYVIAAMSGGIDSTVAAAYTHKIFKERFFGIFIDNGLLRKNEAENVYTFLKSTFPDMNITKIDASENFLSNLQGVTDPEQKRKIIGKLFIEEFEKAVNNIDIDINKTFLLQGTLYPDIIESKCSKNLSDTIKTHHNVGGLPKNLKFKLFEPFKYLFKDAVKTLSRELNLPEEITNRHPFPGPGLAIRVIGEINKHKLNILREVDDIFINDLKQYGLYNQISQAFAVLLSSKSVGVRGDARSYDYVCVLRAVKTSSFMTANWYQIPYDILDKITTRILSEVKGVNRILYDVSSKPPATIEFE
# B7: PfGMPS_K415L (enzyme, Plasmodium falciparum)
# chain: MEGEEYDKILVLNFGSQYFHLIVKRLNNIKIFSETKDYGVELKDIKDMNIKGVILSGGPYSVTEAGSPHLKKEVFEYFLEKKIPIFGICYGMQEIAVQMNGEVKKSKTSEYGCTDVNILRNDNINNITYCRNFGDSSSAMDLYSNYKLMNETCCLFENIKSDITTVWMNHNDEVTKIPENFYLVSSSENCLICSIYNKEYNIYGVQYHPEVYESLDGELMFYNFAYNICKCKKQFDPIRYHELELKNIEKYKHDHYVIAAMSGGIDSTVAAAYTHKIFKERFFGIFIDNGLLRKNEAENVYTFLKSTFPDMNITKIDASENFLSNLQGVTDPEQKRKIIGKLFIEEFEKAVNNIDIDINKTFLLQGTLYPDIIESKCSKNLSDTIKTHHNVGGLPKNLKFKLFEPFKYLFKDDVLTLSRELNLPEEITNRHPFPGPGLAIRVIGEINKHKLNILREVDDIFINDLKQYGLYNQISQAFAVLLSSKSVGVRGDARSYDYVCVLRAVKTSSFMTANWYQIPYDILDKITTRILSEVKGVNRILYDVSSKPPATIEFE
# B8: PfGMPS R539L (enzyme, Plasmodium falciparum)
# chain: MEGEEYDKILVLNFGSQYFHLIVKRLNNIKIFSETKDYGVELKDIKDMNIKGVILSGGPYSVTEAGSPHLKKEVFEYFLEKKIPIFGICYGMQEIAVQMNGEVKKSKTSEYGCTDVNILRNDNINNITYCRNFGDSSSAMDLYSNYKLMNETCCLFENIKSDITTVWMNHNDEVTKIPENFYLVSSSENCLICSIYNKEYNIYGVQYHPEVYESLDGELMFYNFAYNICKCKKQFDPIRYHELELKNIEKYKHDHYVIAAMSGGIDSTVAAAYTHKIFKERFFGIFIDNGLLRKNEAENVYTFLKSTFPDMNITKIDASENFLSNLQGVTDPEQKRKIIGKLFIEEFEKAVNNIDIDINKTFLLQGTLYPDIIESKCSKNLSDTIKTHHNVGGLPKNLKFKLFEPFKYLFKDDVKTLSRELNLPEEITNRHPFPGPGLAIRVIGEINKHKLNILREVDDIFINDLKQYGLYNQISQAFAVLLSSKSVGVRGDARSYDYVCVLRAVKTSSFMTANWYQIPYDILDKITTRILSEVKGVNLILYDVSSKPPATIEFE
# B9: PfGMPS K547L (enzyme, Plasmodium falciparum)
# chain: MEGEEYDKILVLNFGSQYFHLIVKRLNNIKIFSETKDYGVELKDIKDMNIKGVILSGGPYSVTEAGSPHLKKEVFEYFLEKKIPIFGICYGMQEIAVQMNGEVKKSKTSEYGCTDVNILRNDNINNITYCRNFGDSSSAMDLYSNYKLMNETCCLFENIKSDITTVWMNHNDEVTKIPENFYLVSSSENCLICSIYNKEYNIYGVQYHPEVYESLDGELMFYNFAYNICKCKKQFDPIRYHELELKNIEKYKHDHYVIAAMSGGIDSTVAAAYTHKIFKERFFGIFIDNGLLRKNEAENVYTFLKSTFPDMNITKIDASENFLSNLQGVTDPEQKRKIIGKLFIEEFEKAVNNIDIDINKTFLLQGTLYPDIIESKCSKNLSDTIKTHHNVGGLPKNLKFKLFEPFKYLFKDDVKTLSRELNLPEEITNRHPFPGPGLAIRVIGEINKHKLNILREVDDIFINDLKQYGLYNQISQAFAVLLSSKSVGVRGDARSYDYVCVLRAVKTSSFMTANWYQIPYDILDKITTRILSEVKGVNRILYDVSSLPPATIEFE
# B10: PfGMPS E553L (enzyme, Plasmodium falciparum)
# chain: MEGEEYDKILVLNFGSQYFHLIVKRLNNIKIFSETKDYGVELKDIKDMNIKGVILSGGPYSVTEAGSPHLKKEVFEYFLEKKIPIFGICYGMQEIAVQMNGEVKKSKTSEYGCTDVNILRNDNINNITYCRNFGDSSSAMDLYSNYKLMNETCCLFENIKSDITTVWMNHNDEVTKIPENFYLVSSSENCLICSIYNKEYNIYGVQYHPEVYESLDGELMFYNFAYNICKCKKQFDPIRYHELELKNIEKYKHDHYVIAAMSGGIDSTVAAAYTHKIFKERFFGIFIDNGLLRKNEAENVYTFLKSTFPDMNITKIDASENFLSNLQGVTDPEQKRKIIGKLFIEEFEKAVNNIDIDINKTFLLQGTLYPDIIESKCSKNLSDTIKTHHNVGGLPKNLKFKLFEPFKYLFKDDVKTLSRELNLPEEITNRHPFPGPGLAIRVIGEINKHKLNILREVDDIFINDLKQYGLYNQISQAFAVLLSSKSVGVRGDARSYDYVCVLRAVKTSSFMTANWYQIPYDILDKITTRILSEVKGVNRILYDVSSKPPATILFE
# Biological target: the molecule itself
# Assay: SEC
row,Protein,binding result
1,B1,binds
2,B2,binds
3,B3,binds
4,B4,binds
5,B5,binds
6,B6,binds
7,B7,binds
8,B8,binds
9,B9,binds
10,B10,binds
